Read-outs that look alike come from different tables or passages of the source.
T1: CysR∼CTLD3-Fc of DEC205 (human, UniProt O60449 28-627)
T1 construct: signal peptide in the construct; DEC205 (CD205, Ly75), human, CysR∼CTLD3 fragment, residues M1-S627; Human Fc homodimeric fragment with 6xHis at its C-termini fused to the C-terminus of CysR∼CTLD3; Used for Western blot (overlay) assays and ELISA; also called CysR∼CTLD3 fragment; CysR-CTLD3 fragment; source: High-Five insect cells (baculovirus made in Sf9), from culture supernatant, purified …
T1 sequence (looked up): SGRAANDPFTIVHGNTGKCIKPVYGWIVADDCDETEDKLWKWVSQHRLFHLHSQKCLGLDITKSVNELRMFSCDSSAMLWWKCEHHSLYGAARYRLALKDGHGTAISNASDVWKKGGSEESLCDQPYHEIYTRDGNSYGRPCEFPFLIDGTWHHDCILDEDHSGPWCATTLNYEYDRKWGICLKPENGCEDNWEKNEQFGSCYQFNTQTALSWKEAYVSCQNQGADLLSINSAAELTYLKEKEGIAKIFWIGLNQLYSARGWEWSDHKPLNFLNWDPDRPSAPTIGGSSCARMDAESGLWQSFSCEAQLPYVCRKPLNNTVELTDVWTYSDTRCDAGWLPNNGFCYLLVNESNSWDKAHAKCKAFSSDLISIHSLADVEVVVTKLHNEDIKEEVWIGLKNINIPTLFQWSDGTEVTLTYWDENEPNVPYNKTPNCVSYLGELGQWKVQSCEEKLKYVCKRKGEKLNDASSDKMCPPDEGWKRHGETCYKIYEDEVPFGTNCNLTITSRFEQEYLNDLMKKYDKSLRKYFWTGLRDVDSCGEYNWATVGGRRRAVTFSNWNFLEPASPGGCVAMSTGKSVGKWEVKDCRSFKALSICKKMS

T2: CysR∼CTLD3-GFP fragment of DEC205 (wild type) (human, UniProt O60449 28-627)
T2 construct: signal peptide in the construct; DEC205 (CD205, Ly75), human, CysR∼CTLD3 fragment, residues M1-S627; Used for flow cytometry; also called CysR-CTLD3 fragment; not shown: GFP, C-terminal, kept
T2 sequence (looked up): T1 sequence (looked up)

T3: Human keratin 1 tail region K1-T1 (residue E490-R644) (human, UniProt P04264 490-644)
T3 chain: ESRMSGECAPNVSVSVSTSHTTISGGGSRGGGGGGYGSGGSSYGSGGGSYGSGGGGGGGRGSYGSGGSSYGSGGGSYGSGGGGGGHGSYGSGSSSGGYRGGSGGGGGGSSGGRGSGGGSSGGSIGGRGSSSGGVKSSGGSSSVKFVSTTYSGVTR

T4: Human keratin 10 C-terminal tail fragment K10-T1 (residue G461-Y584) (human, UniProt P13645 461-584)
T4 chain: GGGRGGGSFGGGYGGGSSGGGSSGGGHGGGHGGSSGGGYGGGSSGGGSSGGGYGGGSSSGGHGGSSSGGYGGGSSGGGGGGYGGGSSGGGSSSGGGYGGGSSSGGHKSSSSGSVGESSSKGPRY

B1: K10-T6 (residue G461-G476), SUMO fusion (peptide, UniProt P13645 461-476, looked up)
chain: GGGRGGGSFGGGYGGG
notes: keratin 10 (K10), human, tail, residues G461-G476; source: E. coli BL21(DE3), pET28a, purified (Ni-NTA); not shown: SUMO, N-terminal, kept
B2: K1-T3 (G532-G541 and G560-G569: GSGGGSYGSG), SUMO fusion (peptide)
chain: GSGGGSYGSG
notes: Expressed and purified for ELISA and flow cytometry; source: E. coli BL21(DE3), pET28a, purified (Ni-NTA)
B3: K1-T2 (I512-G521: ISGGGSRGGG), SUMO fusion (peptide)
chain: ISGGGSRGGG
notes: keratin 1 (K1), human, tail, residues I512-G521; Expressed and purified for ELISA and flow cytometry; source: E. coli BL21(DE3), pET28a, purified (Ni-NTA)
B4: K10-T8 (residue G492-G506), SUMO fusion (peptide, UniProt P13645 492-506, looked up)
chain: GGSSGGGYGGGSSGG
notes: keratin 10 (K10), human, tail, residues G492-G506; source: E. coli BL21(DE3), pET28a, purified (Ni-NTA); not shown: SUMO, N-terminal, kept
B5: Human keratin 10 C-terminal tail fragment K10-T1 (residue G461-Y584) (domain or fragment, UniProt P13645 461-584, looked up)
chain: T4 chain
notes: keratin 10 (K10), human, C-terminal tail, residues G461-Y584; Expressed without a SUMO tag; source: E. coli BL21(DE3), pET28a, purified (Ni-NTA)
B6: K10-T9 (residue G507-G520), SUMO fusion (peptide, UniProt P13645 507-520, looked up)
chain: GSSGGGYGGGSSSG
notes: keratin 10 (K10), human, tail, residues G507-G520; source: E. coli BL21(DE3), pET28a, purified (Ni-NTA); not shown: SUMO, N-terminal, kept
B7: K10-T4 (residue G461-H491), SUMO fusion (peptide, UniProt P13645 461-491, looked up)
chain: GGGRGGGSFGGGYGGGSSGGGSSGGGHGGGH
notes: keratin 10 (K10), human, tail, residues G461-H491; source: E. coli BL21(DE3), pET28a, purified (Ni-NTA); not shown: SUMO, N-terminal, kept
B8: K10-T5 (residue G492-G520), SUMO fusion (peptide, UniProt P13645 492-520, looked up)
chain: GGSSGGGYGGGSSGGGSSGGGYGGGSSSG
notes: keratin 10 (K10), human, tail, residues G492-G520; source: E. coli BL21(DE3), pET28a, purified (Ni-NTA); not shown: SUMO, N-terminal, kept
B9: CysR∼CTLD3-Fc of DEC205 (Fc fusion)
chain: T1 sequence (looked up)
B10: CysR∼CTLD3 fragment of human DEC205 (residues M1-S627) with a C-terminal 6xHis-tag (domain or fragment, UniProt O60449 28-627, looked up)
chain: T1 sequence (looked up)
notes: signal peptide in the construct; DEC205 (CD205, Ly75), human, CysR∼CTLD3 fragment, residues M1-S627; Construct used for crystallisation; a homodimer stands in the asymmetric unit of the P1 crystal form only; also called N-terminal fragment of DEC205; CD205; source: High-Five insect cells (baculovirus made in Sf9), from culture supernatant, purified (Ni-NTA, gel filtration)
B11: K10-T2 (residue G461-G520), SUMO fusion (domain or fragment, human, UniProt P13645 461-520, looked up)
chain: GGGRGGGSFGGGYGGGSSGGGSSGGGHGGGHGGSSGGGYGGGSSGGGSSGGGYGGGSSSG
notes: keratin 10 (K10), human, tail, residues G461-G520; source: E. coli BL21(DE3), pET28a, purified (Ni-NTA); not shown: SUMO, N-terminal, kept
B12: K10-T7 (residue S477-H491), SUMO fusion (peptide, UniProt P13645 477-491, looked up)
chain: SSGGGSSGGGHGGGH
notes: keratin 10 (K10), human, tail, residues S477-H491; source: E. coli BL21(DE3), pET28a, purified (Ni-NTA); not shown: SUMO, N-terminal, kept
B13: K10-T11 (residue G507-G516), SUMO fusion (peptide)
chain: GSSGGGYGGG
notes: keratin 10 (K10), human, tail, residues G507-G516; source: E. coli BL21(DE3), pET28a, purified (Ni-NTA); not shown: SUMO, N-terminal, kept
B14: chemically synthesized peptide K10-T10 (peptide)
peptide: GSSGGGHGGG
notes: keratin 10 (K10), human, tail, residues G481-G490; source: synthetic peptide
B15: chemically synthesized peptide K10-T11 (peptide)
peptide: GSSGGGYGGG
notes: keratin 10 (K10), human, tail, residues G507-G516; source: synthetic peptide
B16: K10-T10 (residue G481-G490), SUMO fusion (peptide)
chain: GSSGGGHGGG
notes: keratin 10 (K10), human, tail, residues G481-G490; Form used in the Western blot (overlay) assay and, with SUMO as control, in ELISA; source: E. coli BL21(DE3), pET28a, purified (Ni-NTA); not shown: SUMO, N-terminal, kept

Tests used:
CysR∼CTLD3-Fc of DEC205 [1] = target: T1, CysR∼CTLD3-Fc of DEC205; experiment: far-Western, overlay or dot blot; keratin fragments resolved by SDS-PAGE and transferred to PVDF; membrane incubated with CysR∼CTLD3-Fc (10 μg/ml) in PBS, 5% milk, 0.1% Tween 20, pH 6.0 or pH 7.4, 2 h, room temperature; detected with HRP anti-human IgG Fcγ antibody; details: both partners purified
CysR∼CTLD3-Fc of DEC205 [2] = target: B9; experiment: ELISA; pH 6.0
CysR∼CTLD3-Fc of DEC205 [3] = target: T1, CysR∼CTLD3-Fc of DEC205; experiment: ELISA; keratin fragments coated (∼2 μg per well); CysR∼CTLD3-Fc serially diluted in PBS, 2 mg/ml BSA at preset pH (acidic pH), 2 h, 37 °C; detected with HRP anti-human IgG Fcγ antibody; details: both partners purified
[4] = target: T2, CysR∼CTLD3-GFP fragment of DEC205 (wild …); experiment: flow cytometry on cells; inhibition assay: ActD-induced Jurkat cells in PBS pH 6.0 incubated with CysR∼CTLD3-GFP with or without keratin fragments (about 20 μg/ml); the pair meant is keratin fragment and CysR∼CTLD3-GFP; details: both partners purified
[5] = target: T3, Human keratin 1 tail region K1-T1 …; experiment: ELISA; pH 6.0
[6] = target: T4, Human keratin 10 C-terminal tail …; experiment: ELISA; pH 6.0
[7] = target: the molecule itself; experiment: crystal structure; CysR∼CTLD3-His crystallised in 0.2 M sodium citrate, 20% PEG3350, pH 6.5-7.4, 18 °C; P1 crystal form with a homodimer in one asymmetric unit
CysR∼CTLD3-Fc of DEC205 [8] = target: B9; experiment: ELISA; pH 6.0

B1
binding result (CysR∼CTLD3-Fc of DEC205 [1]): binds

B2
Kd (CysR∼CTLD3-Fc of DEC205 [2]): 28.7 nM
binding result (CysR∼CTLD3-Fc of DEC205 [3]): binds
binding result [4]: binds

B3
Kd (CysR∼CTLD3-Fc of DEC205 [2]): 29.1 nM
binding result (CysR∼CTLD3-Fc of DEC205 [3]): binds
binding result [4]: binds

B4
binding result (CysR∼CTLD3-Fc of DEC205 [1]): binds

B5
binding result (CysR∼CTLD3-Fc of DEC205 [3]): binds
binding result [4]: binds

B6
binding result (CysR∼CTLD3-Fc of DEC205 [1]): binds

B7
binding result (CysR∼CTLD3-Fc of DEC205 [1]): binds

B8
binding result (CysR∼CTLD3-Fc of DEC205 [1]): binds

B9
Kd [5]: 31.2 nM
Kd [6]: 11.5 nM

B10
binding result [7]: binds

B11
binding result (CysR∼CTLD3-Fc of DEC205 [1]): binds

B12
binding result (CysR∼CTLD3-Fc of DEC205 [1]): binds

B13
binding result (CysR∼CTLD3-Fc of DEC205 [1]): binds

B14
binding result [4]: binds

B15
binding result [4]: binds

B16
Kd (CysR∼CTLD3-Fc of DEC205 [8]): 10.9 nM
binding result (CysR∼CTLD3-Fc of DEC205 [3]): binds
